Measured values reported in PMC11079166.

B1: C-terminal fragment of BBK32 of B. burgdorferi B31 (domain or fragment)
chain: SNRYQSYLEGVKYNVDSAIQTITKIYNTYTLFSTKLTQMYSTRLDNFAKAKAKEEAAKFTKEDLEKNFKTLLNYIQVSVKTAANFVYINDTHAKRKLENIEAEIKTLIAKIKEQSNLYEAYKAIVTSILLMRDSLKEVQGIID

What was measured:
[1] = biological target: complement component C1r (human)
[2] = biological target: CihC/FbpC of B. hermsii FRO (aa 21-374) (Borrelia hermsii FRO); experiment: ELISA; CihC/FbpC orthologs (5 µg/ml) immobilised, increasing plasminogen (0 to 1.5 µM); apparent dissociation constant by non-linear regression, one-site specific binding model
[3] = biological target: CihC/FbpC ortholog of B. turicatae (aa 21-363) (Borrelia turicatae); experiment: as above
[4] = biological target: CihC/FbpC ortholog of B. parkeri (aa 25-349) (Borrelia parkeri); experiment: as above
[5] = biological target: CihC of B. recurrentis A17 (aa 20-356) (Borrelia recurrentis A17); experiment: as above

Molecule	IC50 of inhibition of the classical pathway (MAC formation, anti-C5b-9 ELISA on IgM; NHS pre-incubated with 0.001 to 4 µM protein) [1] [nM]	also measured
CihC/FbpC of B. hermsii FRO (aa 21-374) (natural protein)	56	
CihC-C of B. recurrentis (aa 195-356) (domain or fragment)	272	
CihC of B. recurrentis A17 (aa 20-356) (natural protein)	62	
CihC/FbpC ortholog of B. turicatae (aa 21-363) (natural protein)	95	
CihC/FbpC ortholog of B. parkeri (aa 25-349) (natural protein)	63	
human glu-plasminogen (natural protein)		Kd [2]: 24.2 nM; Kd [3]: 284 nM; Kd [4]: 62.7 nM; Kd [5]: 93.1 nM
B1	75	
